Test results from article PMC8028046 (Biochemistry, 2021).

Target: the molecule itself
Experiment: SEC; elution profiles of proSP-C BRICHOS WT and T187R

B1: proSP-C BRICHOS WT (domain or fragment, human, UniProt P11686 59-197, looked up)
chain: HMSQKHTEMVLEMSIGAPEAQQRLALSEHLVTTATFSIGSTGLVVYDYQQLLIAYKPAPGTCCYIMKIAPESIPSLEALTRKVHNFQMECSLQAKPAVPTSKLGQAEGRDAGSAPSGGDPAFLGMAVSTLCGEVPLYYI
notes: human proSP-C (surfactant protein C precursor), BRICHOS domain, residues 59-197 of UniProt P11686; Mainly trimeric; The mutant's mass of 18328 Da is larger than residues 59-197 alone would give, so the construct probably carries extra residues (surmise); also called proSP-C BRICHOS domain; WT proSP-C BRICHOS domain
B1: binds.
